This test concerns the target Cynomolgus monkey Tau monomer (cynomolgus monkey). The test can be described thus: SPR 37C, hIgG captured, cyno Tau monomer 0.1-33.3 nM.

Sequence of Cynomolgus monkey Tau monomer (cynomolgus monkey) (P10636 other isoform, or with tags, fused parts or gaps): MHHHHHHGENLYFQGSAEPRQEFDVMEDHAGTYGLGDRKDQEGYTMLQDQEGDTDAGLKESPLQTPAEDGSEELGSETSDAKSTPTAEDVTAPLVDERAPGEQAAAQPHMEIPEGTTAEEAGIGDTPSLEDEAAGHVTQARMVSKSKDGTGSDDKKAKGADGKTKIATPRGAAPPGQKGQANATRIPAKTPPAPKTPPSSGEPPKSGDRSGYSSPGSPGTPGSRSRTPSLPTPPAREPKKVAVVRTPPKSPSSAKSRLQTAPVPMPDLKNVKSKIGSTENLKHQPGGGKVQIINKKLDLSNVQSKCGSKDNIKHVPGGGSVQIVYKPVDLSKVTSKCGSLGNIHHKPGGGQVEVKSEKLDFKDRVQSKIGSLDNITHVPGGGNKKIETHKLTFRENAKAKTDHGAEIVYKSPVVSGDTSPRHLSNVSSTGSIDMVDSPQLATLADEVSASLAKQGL

B1: hu37D3-H9.v76 (antibody, V domains shown)
VH: EVQLVESGGGLVQPGGSLRLSCAASGLIFRSYGMSWVRQAPGKGLEWVATINSGGTRTYYPDSVKGRFTISRDNSKNTLYLQMNSLRAEDTAVYYCANSYSGAMDYWGQGTLVTVSS
VL: DDLLTQTPLSLPVTPGQPASISCRSSQSIVHSNGNTYLEWYLQKPGQSPQLLIYKVSNRFSGVPDRFSGSGSGTDFTLKISRVEAEDVGVYYCFQGTLVPWTFGQGTKVEIK
Broadly, the Kd is the constant that tells how readily two partners part at equilibrium. By koff is commonly meant the first-order rate constant of dissociation. In general, kon refers to a measure of how fast the partners come together. As to B1, the Kd is 0.1 nM, the koff was 0.00114 s⁻¹ and the on-rate constant (kon) was 9.27e+06 M⁻¹ s⁻¹.

B2: hu37D3-H9.v83 (antibody, V domains shown)
VH: EVQLLESGGGLVQPGGSLRLSCAASGLIFRSYGMSWVRQAPGKGLEWVATINSGGTRTYYPDSVKGRFTISRDNSKNTLYLQMNSLRAEDTAVYYCANSYSGAMDYWGQGTLVTVSS
VL: DDLLTQSPLSLPVTLGQPASISCRSSQSIVHSNGNTYLEWYQQRPGQSPRLLIYKVSNRFSGVPDRFSGSGSGTDFTLKISRVEAEDVGVYYCFQGTLVPWTFGQGTKVEIK
B2 had a Kd of 0.1 nM, a koff of 0.00114 s⁻¹ and a kon of 9.55e+06 M⁻¹ s⁻¹.

B3: hu37D3-H9.v93 (antibody, V domains shown)
VH: EVQLVESGGGLVQPGGSLRLSCAASGLIFRSYGMSWVRQAPGKGLEWVATINSGGTRTYYPDSVKGRFTISRDNSKNTLYLQMNSLRAEDTAVYYCANSYSGAMDYWGQGTLVTVSS
VL: EDLLTQSPSSLSASVGDRVTITCRSSQSIVHSNGNTYLEWYQQKPGKSPKLLIYKVSNRFSGVPSRFSGSGSGTDFTLTISSLQPEDFATYYCFQGTLVPWTFGQGTKVEIK
B3: the Kd was 0.1 nM, the koff stood at 0.00178 s⁻¹ and the kon came out at 1.29e+07 M⁻¹ s⁻¹.
